Our source for the EC50 and Kd values is PMC11467380.

The target in data set [1] is U1 snRNP ΔU1-C, biotinylated on SmF and Cy5-labelled on the U1 snRNA (CoSMoS form) (human) (UniProt P08621). Nature of the data set: colocalization single molecule spectroscopy.
Data set [2] has the same target. Nature of the data set: colocalization single molecule spectroscopy. This is another data set of the same source.
Data set [3] has as its target T1, minimal U1 snRNP without U1-C (CoSMoS);U1-C zinc finger (U1-C_61) (human;human, UniProt P08621;P62316;P62318;P14678;P62306;P62304;P62308;P09234 …, internal_change|). As to the kind of experiment: single-molecule CoSMoS.
Data set [4] addresses T1, minimal U1 snRNP without U1-C …. As to the kind of experiment: single-molecule CoSMoS. This is another data set of the same source.
Data set [5] deals with minimal U1 snRNP with U1-C (SPR) (human, UniProt P08621;P62316;P62318;P14678;P62306;P62304;P62308;P09234 …, internal_change). Nature of the data set: SPR.

Like-named read-outs stand apart in the source and are kept apart here.

Chain of U1-C_61 (zinc finger region of U1-C) (P09234 1-61): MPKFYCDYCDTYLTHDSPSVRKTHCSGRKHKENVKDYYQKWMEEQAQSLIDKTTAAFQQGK

Take “U1-C_61 (zinc finger region of U1-C) (from UniProt P09234 1-61) (domain or fragment)”: the values for the EC50 in data set [1] and in data set [2] were 1.8 nM and 1.3 nM, respectively.

Turning to ACACAGAGUAAGUUAACA (ssRNA) [9bp-1A], binding in data set [3] was put at a Kd of 1.2 nM.

Turning to ACACAGGUAAGUUAACA (ssRNA) [9bp], the Kd in data set [4] was around 0.12 nM.

In turn, CAGGUAAGUAU (ssRNA) [11bp] registered a Kd in data set [5] of 0.203 nM.

CAGAGUAAGUAU (ssRNA) [11bp-1A]: binding in data set [5] was put at a Kd of 2.7 nM.

Broadly, the EC50 is the concentration that produces a half-maximal response. High values mean a less potent agent, low ones a more potent agent. Usually Kd stands for the constant that tells how readily two partners part at equilibrium. Low readings indicate tighter binding, high ones weaker binding.
